In PMC4619462, “Description of the first fungal dye-decolorizing peroxidase oxidizing manganese(II)” (Applied Microbiology and Biotechnology, 2015):

Assays:
Assay in all cases: purified protein
purified protein [1] = substrate: CCn1c(=NN=c2sc3cc(S(=O)(=O)O)ccc3n2CC)sc2cc(S(=O)(=O)O)ccc21; assay type: biochemical, Pleurotus ostreatus; details: 0.25 mM H2O2, 0.1 M tartrate pH 3.5, 25 °C
purified protein [2] = substrate: Nc1c(S(=O)(=O)O)cc(Nc2cccc(S(=O)(=O)CCOS(=O)(=O)O)c2)c2c1C(=O)c1ccccc1C2=O; details: 0.25 mM H2O2, 0.1 M tartrate pH 3.5, 25 °C, pH 3.5
purified protein [3] = substrate: COc1cccc(OC)c1O; details: 0.25 mM H2O2, 0.1 M tartrate pH 3.5 (table note; methods say pH 3), 25 °C
purified protein [4] = substrate: Nc1c(N=Nc2ccc(S(=O)(=O)CCOS(=O)(=O)O)cc2)c(S(=O)(=O)O)cc2cc(S(=O)(=O)O)c(N=Nc3ccc(S(=O)(=O)CCOS(=O)(=O)O)cc3)c(O)c12; details: 0.25 mM H2O2, 0.1 M tartrate pH 3.5 (table note; methods say pH 3), 25 °C
purified protein [5] = substrate: Nc1c(S(=O)(=O)O)cc(Nc2cccc(S(=O)(=O)CCOS(=O)(=O)O)c2)c2c1C(=O)c1ccccc1C2=O; assay type: biochemical, Pleurotus ostreatus; details: 0.25 mM H2O2, 0.1 M tartrate pH 3.5, 25 °C

B1: Pleos-DyP4 (Pleurotus ostreatus PC15) (protein)
chain: MTTPAPPLDLNNIQGDILGGLPKRTETYFFFDVTNVDQFKANMAHFIPHIKTSAGIIKDREAIKEHKRQKKPGLVPMAAVNVSFSHLGLQKLGITDDLSDNAFTTGQRKDAEILGDPGSKNGDAFTPAWEAPFLKDIHGVIFVAGDCHGSVNKKLDEIKHIFGVGTSHASISEVTHVRGDVRPGDVHAHEHFGFLDGISNPAVEQFDQNPLPGQDPIRPGFILAKENGDSRAAARPDWAKDGSFLTFRYLFQMVPEFDDFLESNPIVLPGLSRKEGSELLGARIVGRWKSGAPIEITPLKDDPKLAADAQRNNKFDFGDSLVRGDQTKCPFAAHIRKTYPRNDLEGPPLKADIDNRRIIRRGIQFGPEVTSQEHHDKKTHHGRGLLFVCYSSSIDDGFHFIQESWANAPNFPVNAVTSAGPIPPLDGVVPGFDAIIGQKVGGGIRQISGTNPNDPTTNITLPDQDFVVPRGGEYFFSPSITALKTKFAIGVASPAPHSQAPISA
Purified protein [1]
  Km: 787 ± 160 µM
  kcat: 277 ± 24 s⁻¹
  kcat/Km: 352000 M⁻¹ s⁻¹
Purified protein [2]
  Km: 82 ± 13 µM
  kcat: 152 ± 13 s⁻¹
  kcat/Km: 1.86e+06 M⁻¹ s⁻¹
Purified protein [3]
  Km: 126 ± 21 µM
  kcat: 268 ± 24 s⁻¹
  kcat/Km: 2.12e+06 M⁻¹ s⁻¹
Purified protein [4]
  Km: 5.7 ± 0.4 µM
  kcat: 5.3 ± 0.8 s⁻¹
  kcat/Km: 1.08e+06 M⁻¹ s⁻¹

B2: Pleos-VP2 (Pleurotus ostreatus) (protein)
chain: VTCATGQTTANEACCALFPILDDIQTNLFDGAQCGEEVHESLRLTFHDAIAFSPALTNAGQFGGGGADGSMIIFSDTEPNFHANLGIDEIVEAQKPFIARHNICAADFIQFAGAIGVSNCAGAPRLNFFLGRPDATQIPPDGLVPEPFDDVTKILSRMGDAGFSTVEVVWLLSSHTIAAADLVDPSIPGTPFDSTPSTFDSQFFLETMLQGTAFPGTPGNQGEVESPLAGEMRLQSDFLLARDSRSACEWQSMVNNMPKIQNRFTQVMKKLSLLGHNQADLIDCSDVIPVPKTLTKAATFPAGKSQADVEIVCNAAATPFPALSSDPGPVTAVPPVPPS
Purified protein [5]
  Km: 16 ± 1 µM
  kcat: 8 ± 0.2 s⁻¹
  kcat/Km: 495000 M⁻¹ s⁻¹
